Reference: IntAct's records for PubMed 23598340

B1: Ktr system potassium uptake protein B (Bacillus subtilis), O32081 (parent)
chain: MTLQKDKVIKWVRFTPPQVLAIGFFLTIIIGAVLLMLPISTTKPLSWIDALFTAASATTVTGLAVVDTGTQFTVFGQTVIMGLIQIGGLGFMTFAVLIVMILGKKIGLKERMLVQEALNQPTIGGVIGLVKVLFLFSISIELIAALILSIRLVPQYGWSSGLFASLFHAISAFNNAGFSLWPDNLMSYVGDPTVNLVITFLFITGGIGFTVLFDVMKNRRFKTFSLHTKLMLTGTLMLNAIAMLTVFILEYSNPGTLGHLHIVDKLWASYFQAVTPRTAGFNSLDFGSMREGTIVFTLLLMFIGAGSASTASGIKLTTFIVILTSVIAYLRGKKETVIFRRSIKYPIIIKALAVSVTSLFIVFLGIFALTITEQAPFLQIVFETFSAFGTVGLTMGLTPELTTAGKCIIIVIMFIGRIGPLTFVFSFAKTEQSNIRYPDGEVFTG
partner: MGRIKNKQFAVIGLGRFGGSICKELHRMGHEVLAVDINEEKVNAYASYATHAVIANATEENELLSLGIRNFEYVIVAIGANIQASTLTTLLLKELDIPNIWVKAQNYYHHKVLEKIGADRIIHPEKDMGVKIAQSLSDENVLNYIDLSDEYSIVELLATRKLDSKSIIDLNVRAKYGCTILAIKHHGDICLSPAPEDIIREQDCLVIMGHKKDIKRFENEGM

Variants of: B1
Conditions: with ktra_bacsu ktrA

effect of a mutation on the interaction | Variant
decreasing interaction strength | L108A
